Experimental data from patent US20250230224A1 (University of California, published 2025).

T1: BoNT/F1 (UniProt A7GBG3 1-1278)
T1 sequence: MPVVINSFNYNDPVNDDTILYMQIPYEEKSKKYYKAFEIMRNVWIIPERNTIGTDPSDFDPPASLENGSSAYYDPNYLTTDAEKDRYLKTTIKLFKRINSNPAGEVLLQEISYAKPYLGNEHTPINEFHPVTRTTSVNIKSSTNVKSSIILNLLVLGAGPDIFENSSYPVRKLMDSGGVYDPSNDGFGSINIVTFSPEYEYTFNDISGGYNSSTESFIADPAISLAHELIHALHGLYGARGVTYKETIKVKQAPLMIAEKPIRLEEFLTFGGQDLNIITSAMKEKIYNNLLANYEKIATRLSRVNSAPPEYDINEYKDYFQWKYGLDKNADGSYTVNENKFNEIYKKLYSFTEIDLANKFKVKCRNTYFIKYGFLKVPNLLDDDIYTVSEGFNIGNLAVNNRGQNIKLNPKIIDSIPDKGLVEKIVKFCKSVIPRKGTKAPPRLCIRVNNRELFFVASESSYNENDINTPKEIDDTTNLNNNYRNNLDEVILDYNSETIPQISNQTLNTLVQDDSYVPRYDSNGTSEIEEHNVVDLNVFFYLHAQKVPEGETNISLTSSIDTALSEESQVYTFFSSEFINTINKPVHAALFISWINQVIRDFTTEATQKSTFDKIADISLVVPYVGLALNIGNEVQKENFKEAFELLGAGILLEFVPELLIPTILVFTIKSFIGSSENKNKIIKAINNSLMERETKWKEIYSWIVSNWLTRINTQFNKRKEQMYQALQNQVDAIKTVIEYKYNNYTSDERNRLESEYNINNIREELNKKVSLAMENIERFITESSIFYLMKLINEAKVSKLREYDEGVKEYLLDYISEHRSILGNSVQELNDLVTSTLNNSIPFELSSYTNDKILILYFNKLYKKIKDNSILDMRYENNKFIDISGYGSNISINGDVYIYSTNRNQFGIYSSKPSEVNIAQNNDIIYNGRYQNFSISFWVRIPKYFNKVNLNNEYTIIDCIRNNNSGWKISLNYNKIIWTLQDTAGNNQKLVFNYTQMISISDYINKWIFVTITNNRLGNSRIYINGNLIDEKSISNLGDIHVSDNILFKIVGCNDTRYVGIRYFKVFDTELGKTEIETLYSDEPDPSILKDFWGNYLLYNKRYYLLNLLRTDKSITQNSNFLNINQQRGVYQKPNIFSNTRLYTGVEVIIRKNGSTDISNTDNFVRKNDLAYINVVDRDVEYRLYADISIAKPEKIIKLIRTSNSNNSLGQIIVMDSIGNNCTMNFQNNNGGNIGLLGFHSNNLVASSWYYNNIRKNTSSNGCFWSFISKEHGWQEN

T2: Botulinum neurotoxin serotype D (BoNT/D) (Clostridium botulinum, UniProt P19321 2-1276)
T2 sequence: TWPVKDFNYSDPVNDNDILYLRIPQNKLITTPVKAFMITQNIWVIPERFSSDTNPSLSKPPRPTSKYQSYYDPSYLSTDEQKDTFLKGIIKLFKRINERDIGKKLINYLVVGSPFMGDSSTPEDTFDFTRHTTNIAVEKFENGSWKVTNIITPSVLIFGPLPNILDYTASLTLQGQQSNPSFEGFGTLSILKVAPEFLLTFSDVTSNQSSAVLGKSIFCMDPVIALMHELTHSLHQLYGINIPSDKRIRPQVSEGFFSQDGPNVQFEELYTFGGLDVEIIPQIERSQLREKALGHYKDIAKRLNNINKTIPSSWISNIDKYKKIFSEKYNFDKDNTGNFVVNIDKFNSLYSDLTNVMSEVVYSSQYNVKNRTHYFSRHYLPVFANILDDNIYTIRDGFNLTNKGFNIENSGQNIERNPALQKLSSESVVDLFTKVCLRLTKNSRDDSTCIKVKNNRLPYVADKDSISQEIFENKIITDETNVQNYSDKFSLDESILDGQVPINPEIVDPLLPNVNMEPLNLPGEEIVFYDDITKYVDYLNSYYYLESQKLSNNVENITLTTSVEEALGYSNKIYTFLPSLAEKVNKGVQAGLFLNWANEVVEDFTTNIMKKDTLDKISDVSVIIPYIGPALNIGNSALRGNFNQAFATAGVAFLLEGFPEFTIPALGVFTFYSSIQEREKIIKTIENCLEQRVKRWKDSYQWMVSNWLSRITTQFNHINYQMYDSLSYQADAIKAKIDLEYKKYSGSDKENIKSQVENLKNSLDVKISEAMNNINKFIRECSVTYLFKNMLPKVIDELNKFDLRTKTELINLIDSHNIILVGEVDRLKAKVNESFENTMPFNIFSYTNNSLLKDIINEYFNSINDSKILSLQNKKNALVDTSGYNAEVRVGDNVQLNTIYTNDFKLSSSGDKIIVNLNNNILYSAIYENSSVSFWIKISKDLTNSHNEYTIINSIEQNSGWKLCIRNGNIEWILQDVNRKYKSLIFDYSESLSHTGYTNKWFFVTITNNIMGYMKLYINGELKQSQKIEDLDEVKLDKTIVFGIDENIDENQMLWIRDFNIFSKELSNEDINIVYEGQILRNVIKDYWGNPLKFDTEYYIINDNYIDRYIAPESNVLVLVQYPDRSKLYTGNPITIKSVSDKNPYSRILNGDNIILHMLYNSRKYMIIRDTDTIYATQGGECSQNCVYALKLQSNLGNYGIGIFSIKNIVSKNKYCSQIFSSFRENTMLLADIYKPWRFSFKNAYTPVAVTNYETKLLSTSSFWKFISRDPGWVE

T3: Botulinum neurotoxin serotype C (BoNT/C) (Clostridium botulinum, UniProt P18640 2-1291)
T3 sequence: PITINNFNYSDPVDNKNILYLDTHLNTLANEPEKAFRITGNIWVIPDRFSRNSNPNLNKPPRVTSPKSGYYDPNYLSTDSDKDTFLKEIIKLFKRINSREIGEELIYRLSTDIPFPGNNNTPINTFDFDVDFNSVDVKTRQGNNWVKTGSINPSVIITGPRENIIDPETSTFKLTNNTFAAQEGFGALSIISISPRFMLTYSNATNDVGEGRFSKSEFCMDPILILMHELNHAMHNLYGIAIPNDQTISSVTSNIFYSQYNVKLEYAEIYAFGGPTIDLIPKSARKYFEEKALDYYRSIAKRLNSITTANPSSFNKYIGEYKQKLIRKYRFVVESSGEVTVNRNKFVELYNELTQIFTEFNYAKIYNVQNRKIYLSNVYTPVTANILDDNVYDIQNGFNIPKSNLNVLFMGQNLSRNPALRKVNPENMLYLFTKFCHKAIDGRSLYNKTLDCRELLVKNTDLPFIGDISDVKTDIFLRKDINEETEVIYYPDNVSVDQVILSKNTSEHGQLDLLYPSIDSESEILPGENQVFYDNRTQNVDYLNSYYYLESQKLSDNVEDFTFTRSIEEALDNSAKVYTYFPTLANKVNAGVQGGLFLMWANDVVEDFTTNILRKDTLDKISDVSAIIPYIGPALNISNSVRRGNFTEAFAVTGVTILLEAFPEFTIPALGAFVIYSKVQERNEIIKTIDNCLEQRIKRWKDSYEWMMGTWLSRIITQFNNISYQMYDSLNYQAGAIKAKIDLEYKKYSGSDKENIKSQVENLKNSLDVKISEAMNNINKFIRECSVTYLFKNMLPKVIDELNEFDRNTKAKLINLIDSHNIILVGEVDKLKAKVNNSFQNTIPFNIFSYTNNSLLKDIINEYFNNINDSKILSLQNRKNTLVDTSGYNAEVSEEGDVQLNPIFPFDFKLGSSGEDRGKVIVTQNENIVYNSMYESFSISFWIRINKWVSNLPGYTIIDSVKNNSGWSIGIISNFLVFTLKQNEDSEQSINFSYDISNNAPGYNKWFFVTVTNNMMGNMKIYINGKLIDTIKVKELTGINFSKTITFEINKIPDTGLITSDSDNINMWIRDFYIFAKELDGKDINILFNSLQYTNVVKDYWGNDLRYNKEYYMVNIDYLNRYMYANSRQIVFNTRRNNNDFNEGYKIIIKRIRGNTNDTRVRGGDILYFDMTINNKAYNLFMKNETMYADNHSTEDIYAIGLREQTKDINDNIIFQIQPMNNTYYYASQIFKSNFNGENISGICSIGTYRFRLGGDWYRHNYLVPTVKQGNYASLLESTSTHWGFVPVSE

B1: 6F5.4 IgG (antibody, V domains shown)
VH: EVQLVPSGGNLVQPGGSLRLSCAATGPIDYHWMTWVRQAPGQGLEWVANINLDGTEKFYVDSVKGRFTVSRDNRKSSVFLQMNNLRVDDTAVYYCARLQWGERDGWLSPWGQGTLVTVSS
VL: DIVMTQSPPSLSASVGDRVRLTCRASQSIGRSLNWYQQKPGKAPKLLIYDASALHSGVPSRFSGSGSGTDFTLTISGLQPEDFATYYCQQTNDLPVTFGGGTKLEIKR
B2: Hu6F11 IgG (antibody, V domains shown)
VH: EVQLVESGGGLVKPGGSLRLSCAASGFTFSNYGMSWVRQAPGKGLEWVASISSGGSYIYYPDSVKGRFTISRDNAKNSLYLQMNSLRAEDTAVYYCARRKGYDSLYWYFDVWGQGTLVTVSS
VL: DVVMTQSPSSLSAFVGDRVTITCRASQGIRSYLAWFQQKPGKAPKLLIYAASTLQSGVPSRFSGSGSGTEFTLTVSGLQPEDFATYYCQQYNSYPLTFGGGTRLEIKR
B3: Hu6F13.4 IgG (antibody, V domains shown)
VH: QVQLVQSGAEVKKPGASVKVSCKASGYSFTSYWMHWVRQAPGQGLEWIGFINPINGGIIYNEKFRFRATLTVDTSISTAYMELSRLRSDDTAVYYCARAGYYGSSRHFDVWGQGTLLTVSS
VL: ETTLTQSPSSLSASVGDRVTITCRASQGIRNYLAWYQQKPGKAPKLLIYDASNLETGVPSRFSGSGSGTDFTFTISSLQPEDFATYYCLQTSSTPWTFGQGTKVDIKR
B4: 8DC4.1 IgG (antibody, V domains shown)
VH: QVQLQESGPGLVKPSQTLSLTCTVSGGSISSDNYFWTWIRQSPGKGLEWLGHISYSGRSYTNLSLKRRLTISVDTSKNQFSLNLNSVTAADTAVYYCARERLPPGRGYDMDVWGQGTTVTVSS
VL: not shown
B5: 8DC4.4 IgG (antibody, V domains shown)
VH: QVQLQESGPGLVKPSQTLSLTCTVSGGSISSDNYFWTWIRQSPGKGLEWLGHISYSGRSYTNLSLKRRLTISVDTSKNQFSLNLNSVTAADTAVYYCARERLPPGRGYDMDVWGQGTTVTVSS
VL: DIVMTQSPSSVSASVGDRVTITCRASRDISIYLNWYQQKPGKAPKLLIYAASNLETGVPSRFSGSGSGTDFTLTISSLQPEDVATYYCQQSYNTPLTFGGGTKLEIKR
B6: 4C4 IgG (antibody, V domains shown)
VH: QVQLVESGPGLVKPSQTLSLTCSVSGASINNSPYFWNWFRQFPGKGLEWIGYIYWSGSTNYNPSLKSRLAMSVDTSKNQFSLKLTSATAADTAVYYCARDQGGGTVVKENWFDPWGQGTLVTVSS
VL: DIVMTQSPSSLSASVGDRLTMTCQASQDIGKHLNWYQQKAGKPPKLLIYGASNLKTGVPSRFSAGVSWTDFTFTISNVQPEDVATYYCQQSYSTPPTFGQGTKVEIK
B7: 4C4.4 IgG (antibody, V domains shown)
VH: QVQLQESGPGLVKPSQTLSLTCTVSGASISNSPYFWNWFRQFPGKGLEWIGYIYWSGSTNYNPSLKSRLAMSVDTSKNQFSLKLTSATAADTAVYYCARDQGGGTVVKENWFDPWGQGTLVTVSS
VL: DIVMTQSPSSLSASVGDRLTMTCQASQDIGKHLNWYQQKAGKPPKLLIYGASNLKTGVPSRFSAGVSWTDFTFTISNVQPEDVATYYCQQSYSTPPTFGQGTKVEIKR
B8: 4C4.2 IgG (antibody, V domains shown)
VH: QVQLVESGPGLVKPSQTLSLTCSVSGASINNSPYFWNWFRQFPGKGLEWIGYIYWSGSTNYNPSLKSRLAMSVDTSKNQFSLKLTSATAADTAVYYCARDQGGGTVVKENWFDPWGQGTLVTVSS
VL: DIQMTQSPSTLSASVGDRVTITCRASQSIGTYLNWYQQKPGRAPTLLVSRTSNLHTGVPSRFSGDGSGSHFSLTIDSLQPEDFATYYCQQSHTSPVTFGQGTKVEIK
B9: 4C4.1 IgG (antibody, V domains shown)
VH: QVQLVESGPGLVKPSQTLSLTCSVSGASINNSPYFWNWFRQFPGKGLEWIGYIYWSGSTNYNPSLKSRLAMSVDTSKNQFSLKLTSATAADTAVYYCARDQGGGTVVKENWFDPWGQGTLVTVSS
VL: ETTLTQSPSSLSASVGDRVSITCRASQSISNYLNWYQQKPGKAPKLLIYAASSLQSGVPSRFSGSGSGTDFTLTISSLQPEDFATYYCQQSYSDPPTFGQGTKVEIK

How the values were obtained:
BoNT/F1 = target: T1, BoNT/F1; test: KinExA, IgG
[1] = target: T2, Botulinum neurotoxin serotype D (BoNT/D); test: KinExA flow fluorimetry, solution phase, IgG
[2] = target: T3, Botulinum neurotoxin serotype C (BoNT/C); test: KinExA flow fluorimetry, solution phase, IgG
[3] = target: Mosaic botulinum neurotoxin BoNT/DC (Clostridium botulinum); test: KinExA flow fluorimetry, solution phase, IgG

Binder | Kd (BoNT/F1) | Kd [1] | Kd [2] | Kd [3]
B1 | 0.0149 nM | – | – | –
B2 | 0.00071 nM | – | – | –
B3 | 0.173 nM | – | – | –
B4 | – | 1.4 nM | 1.4 nM | 1.4 nM
B5 | – | 0.157 nM | 0.136 nM | –
B6 | – | – | 0.888 nM | 0.597 nM
B7 | – | – | 0.016 nM | –
B8 | – | 0.254 nM | 0.035 nM | 0.126 nM
B9 | – | 0.898 nM | 0.57 nM | 0.058 nM
